For assay [1], the target named is ED-B fibronectin antigen protein (recombinant), bound to CNBr activated sepharose 4B (UniProt P02751). The assay can be described thus: ED-B sepharose column, % of total radioactivity bound; Study A; maltose 50 mg/mL; day 0.
Assay [2] shares this target. The assay can be described thus: ED-B sepharose column, % of total radioactivity bound; Study A; inositol 10 mg/mL; day 7.
The target is the same in assay [3]. The assay can be described thus: ED-B sepharose column, % of total radioactivity bound; Study B3; thioglycerol 10 mg/mL; day 2.

131I L19-SIP (radioiodinated L19 SIP homodimer), sequence (chain): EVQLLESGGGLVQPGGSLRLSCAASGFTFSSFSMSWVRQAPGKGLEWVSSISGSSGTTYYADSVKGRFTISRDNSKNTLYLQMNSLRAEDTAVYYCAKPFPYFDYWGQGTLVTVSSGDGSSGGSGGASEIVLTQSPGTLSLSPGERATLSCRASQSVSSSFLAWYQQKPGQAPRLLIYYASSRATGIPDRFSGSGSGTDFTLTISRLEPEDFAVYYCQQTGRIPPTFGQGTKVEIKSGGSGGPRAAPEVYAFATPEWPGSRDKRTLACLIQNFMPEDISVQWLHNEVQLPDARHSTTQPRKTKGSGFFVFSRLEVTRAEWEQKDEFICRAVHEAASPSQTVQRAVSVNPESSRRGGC
131I L19-SIP (radioiodinated L19 SIP homodimer), sequence (chain): as above
UniProt P02751, sequence (P02751 1266-1356 limits assumed): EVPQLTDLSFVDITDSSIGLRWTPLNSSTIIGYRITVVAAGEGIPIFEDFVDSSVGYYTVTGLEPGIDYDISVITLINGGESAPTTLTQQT

For the substance “131I L19-SIP (radioiodinated L19 SIP homodimer)”, the Immunoreactivity (%) in assay [1] was found to be 89.7%; in assay [2] it was 60.7%. Also, the Immunoreactivity (IR) (%) in assay [3] is 58.4%.

Source of the values: WO2011147762A2.
